# According to patent US20230165981A1, “[161Tb]-BASED RADIOPEPTIDES” (priority 2021, published 2023):
# Several values for one entry are separate records, joined by “and”; a condition that tells them apart may be missing. Equal values may be shown once. Read-outs that look alike come from different tables or passages of the source. Positions of bridges follow the written chain, without caps; N, C: chain ends. Non-standard residues stand in square brackets, D forms with d. Residues, ends and D or L forms follow the SMILES beside them. *: point of attachment. DOTA = O=C(O)CN1CCN(CC(=O)O)CCN(CC(=O)*)CCN(CC(=O)O)CC1; dPhe(4-NHCONH2) = NC(=O)Nc1ccc(C[C@@H](N)C(=O)O)cc1; Phe(4-Cl) = N[C@@H](Cc1ccc(Cl)cc1)C(=O)O
# Legend:
# AR42J tumor-bearing mice = assay: Biodistribution: optimum injected molar amount; settings: 2 h p.i.
# [1] = n-octanol/PBS distribution coefficient (logD), shake-flask method; type: physicochemical; settings: n-octanol/PBS pH 7.4
# Protocol: An aliquot of the radiolabeled peptide (0.5 MBq, 25 µL) was added to a mixture of 1475 µL PBS pH 7.4 and 1500 µL n-octanol. The respective tubes were vortexed for 60 sec and centrifuged for 6 min at 2500 rpm followed by the measurement of the activity concentration in a defined volume of each layer using a γ-counter (Perkin Elmer, Wallac Wizard 1480). The logD values were calculated as the logarithm of the ratio of counts per minute (cpm) measured in the n-octanol phase relative to the cpm measured in the PBS pH 7.4 phase. The experiments were performed three times with five replicates for each radiopeptide and the logD value was expressed as the average ± standard deviation (SD) of the values obtained in each experiment. […] A p value <0.05 was considered statistically significant.
# in vivo = settings: female, athymic nude (CD-1 Foxn-1nu), mouse, iv, 1 nmol/mouse, total radioactivity
# Protocol: Five-week-old female, athymic nude mice (CD-1 Foxn-⅟nu) were obtained from Charles River Laboratories (Sulzfeld, Germany). Mice were subcutaneously inoculated with AR42J tumor cells (5 × 10^6 cells in 100 µL PBS) for SPECT/CT imaging, biodistribution and therapy studies. The SPECT/CT and biodistribution studies were performed 10-14 days after tumor cell inoculation when the tumor size reached a volume of ~250 mm^3.
# The mice were sacrificed at 2 h and 24 h post injection (p.i.). Selected tissues and organs were collected, weighed, and the accumulated activity was counted in a γ-counter. The decay-corrected data were listed as the percentage of the injected activity per gram of tissue mass (% IA/g). The data were analyzed for significance using a two-way ANOVA with Tukey’s multiple comparison post-tests. A p-value of <0.05 was considered statistically significant.
# [2] = Assessment of early side effects in therapy mice; settings: endpoint of therapy
# Protocol: Early side effects were assessed based on the RBW of each mouse which was monitored every second day. When an endpoint was reached or at the end of the study (after 49 days), relevant organs and tissues were collected, weighed and put into relation to the brain mass and body weight of the respective mouse. This allowed comparison of organ-to-brain and organ-to-body mass weight ratios. In addition, blood plasma parameters from blood collected immediately after euthanasia were measured.
# RBW, organ mass and mass ratios at the endpoint: The RBW was monitored every second day. Mice were euthanized when a predefined endpoint criterion was reached or when the study was terminated at Day 49. RBWs, organ masses, organ mass ratios (kidney-to-brain, liver-to-brain and spleen-to-brain) and organ mass to body weight ratios (kidney-to-body mass, liver-to-body mass and spleen-to-body mass) were analyzed for significance using a one-way ANOVA test with a Tukey’s multiple comparisons post-test. A p-value of <0.05 was considered as statistically significant.
# Blood plasma chemistry: Immediately before euthanasia of the mice that reached the endpoint, blood was sampled from the retrobulbar vein. The values of creatinine (CRE), blood urea nitrogen (BUN), alkaline phosphatase (ALP), total bilirubin (TBIL) and albumin (ALB) were determined in the plasma after centrifugation of the blood using a dry chemistry analyzer (DRI-CHEM 4000i, FUJIFILM, Japan). The average blood plasma parameters of each group were analyzed for significance using a one-way ANOVA test with a Tukey’s multiple comparisons post-test. A p-value of <0.05 was considered as statistically significant.
# [3] = Biodistribution: optimum injected molar amount; settings: female, mouse, in vivo, iv, total radioactivity, 2 h p.i.
# AR42J tumors = assay: Preclinical therapy study in AR42J tumor-bearing mice; type: in vivo
smiles,measurement,setting,value
C[C@@H](O)[C@@H]1NC(=O)[C@H](CCCCN)NC(=O)[C@@H](Cc2ccc(NC(N)=O)cc2)NC(=O)[C@H](Cc2ccc(O)cc2)NC(=O)[C@H](NC(=O)[C@H](Cc2ccc(Cl)cc2)NC(=O)CN2CCN(CC(=O)O)CCN(CC(=O)O)CCN(CC(=O)O)CC2)CSSC[C@@H](C(=O)N[C@H](Cc2ccc(O)cc2)C(N)=O)NC1=O [metal not drawn] ({DOTA}-[Phe(4-Cl)][dC]Y[dPhe(4-NHCONH2)]KTC[dY]-NH2; disulfide 2-7),Tu-to-adr (tumor-to-adrenals),AR42J tumor-bearing mice; 0.040 nmol/mouse,11 ±4
same,Tu-to-blood,AR42J tumor-bearing mice; 0.040 nmol/mouse,289 ± 45
same,Tu-to-kidney,AR42J tumor-bearing mice; 0.040 nmol/mouse,4.3 ± 1.2
same,Tu-to-adr (tumor-to-adrenals),AR42J tumor-bearing mice; 0.20 nmol/mouse,34 ± 9.2
same,Tu-to-blood,AR42J tumor-bearing mice; 0.20 nmol/mouse,492 ± 102
same,Tu-to-kidney,AR42J tumor-bearing mice; 0.20 nmol/mouse,4.3 ± 0.4
same,Tu-to-liver,AR42J tumor-bearing mice; 0.20 nmol/mouse,90 ± 11
same,Biodistribution: Blood,AR42J tumor-bearing mice; 1.0 nmol/mouse,≤0.10 % IA/g
same,Biodistribution: Heart,AR42J tumor-bearing mice; 1.0 nmol/mouse,≤0.10 % IA/g
same,Biodistribution: Muscle,AR42J tumor-bearing mice; 1.0 nmol/mouse,≤0.10 % IA/g
same,Tu-to-adr (tumor-to-adrenals),AR42J tumor-bearing mice; 1.0 nmol/mouse,36 ± 6
same,LogD,[1]; read-out: LogD,-2.5 ± 0.1
same,tissue uptake at 24 h,in vivo; intestines,0.14 ± 0.03 %ID/g
same,tissue uptake at 2 h,in vivo; kidneys,11 ± 1 %ID/g
same,ALB (albumin),[2],23 ± 1 g/L
same,ALP (alkaline phosphatase),[2],66 ± 5 U/L
same,BUN (blood urea nitrogen),[2],8.2 ± 1.9 mmol/L and 8.2 ± 1.8 mmol/L
same,CRE (plasma creatinine),[2],<18 (n=5) µmol/L and 19 (n=1) µmol/L
same,TBIL (total bilirubin),[2],<3 (n=4) µmol/L and 4 ± 1 (n=2) µmol/L
"C[C@@H](O)[C@@H]1NC(=O)[C@H](CCCCN)NC(=O)[C@@H](Cc2c[nH]c3ccccc23)NC(=O)[C@H](Cc2ccc(O)cc2)NC(=O)[C@@H](NC(=O)[C@@H](Cc2ccccc2)NC(=O)CN2CCN(CC(=O)O)CCN(CC(=O)O)CCN(CC(=O)O)CC2)CSSC[C@@H](C(=O)N[C@H](CO)[C@@H](C)O)NC1=O [[^161Tb]Tb-DOTATOC, metal not drawn]",tissue uptake at 2 h,"[3]; CD-1 Foxn-1nu athymic nude, 0.04 nmol/mouse, Biodistribution: Adrenals, 0.040 nmol/mouse",0.65 ± 0.08 %ID/g
same,tissue uptake at 2 h,"[3]; CD-1 Foxn-1nu athymic nude, 0.04 nmol/mouse, Biodistribution: Kidneys, 0.040 nmol/mouse",9 ± 2 %ID/g
same,tissue uptake at 2 h,"[3]; CD-1 Foxn-1nu athymic nude, 0.2 nmol/mouse, Biodistribution: Heart, 0.20 nmol/mouse",< 0.1 %ID/g
same,tissue uptake at 2 h,"[3]; athymic nude (CD-1 Foxn-1nu), 0.04 nmol/mouse, Biodistribution: AR42J Tumor, 0.040 nmol/mouse",16 ± 4 %ID/g
same,tissue uptake at 2 h,"[3]; athymic nude (CD-1 Foxn-1nu), 0.04 nmol/mouse, Biodistribution: Blood, 0.040 nmol/mouse",< 0.1 %ID/g
same,tissue uptake at 2 h,"[3]; athymic nude (CD-1 Foxn-1nu), 0.04 nmol/mouse, Biodistribution: Heart, 0.040 nmol/mouse",< 0.1 %ID/g
same,tissue uptake at 2 h,"[3]; athymic nude (CD-1 Foxn-1nu), 0.04 nmol/mouse, Biodistribution: Muscle, 0.040 nmol/mouse",< 0.1 %ID/g
same,tissue uptake at 2 h,"[3]; athymic nude (CD-1 Foxn-1nu), 0.2 nmol/mouse, Biodistribution: AR42J Tumor, 0.20 nmol/mouse",14 ± 1 %ID/g
same,tissue uptake at 2 h,"[3]; athymic nude (CD-1 Foxn-1nu), 0.2 nmol/mouse, Biodistribution: Blood, 0.20 nmol/mouse",< 0.1 %ID/g
same,tissue uptake at 2 h,"[3]; athymic nude (CD-1 Foxn-1nu), 0.2 nmol/mouse, Biodistribution: Muscle, 0.20 nmol/mouse",< 0.1 %ID/g
same,tissue uptake at 2 h,"[3]; athymic nude (CD-1 Foxn-1nu), 1 nmol/mouse, Biodistribution: AR42J Tumor, 1.0 nmol/mouse",~8 %ID/g
same,tissue uptake at 2 h,"[3]; athymic nude (CD-1 Foxn-1nu), kidney uptake, irrespective of the applied setting (0.04-1.0 nmol)",~10 %ID/g
C[C@@H](O)[C@@H]1NC(=O)[C@H](CCCCN)NC(=O)[C@@H](Cc2c[nH]c3ccccc23)NC(=O)[C@H](Cc2ccc(O)cc2)NC(=O)[C@@H](NC(=O)[C@@H](Cc2ccccc2)NC(=O)CN2CCN(CC(=O)O)CCN(CC(=O)O)CCN(CC(=O)O)CC2)CSSC[C@@H](C(=O)N[C@H](CO)[C@@H](C)O)NC1=O [[^177Lu]Lu-DOTATOC] [metal not drawn],Biodistribution: AR42J Tumor,AR42J tumor-bearing mice; 0.040 nmol/mouse,~ 17 % IA/g
same,Biodistribution: Blood,AR42J tumor-bearing mice; 0.040 nmol/mouse,≤0.10 % IA/g
same,Biodistribution: Heart,AR42J tumor-bearing mice; 0.040 nmol/mouse,≤0.10 % IA/g
same,Biodistribution: Kidneys,AR42J tumor-bearing mice; 0.040 nmol/mouse,10 ± 2 % IA/g
same,Biodistribution: Muscle,AR42J tumor-bearing mice; 0.040 nmol/mouse,≤0.10 % IA/g
same,Tu-to-adr (tumor-to-adrenals),AR42J tumor-bearing mice; 0.040 nmol/mouse,28 ± 2
same,Tu-to-blood,AR42J tumor-bearing mice; 0.040 nmol/mouse,213 ± 41
same,Tu-to-kidney,AR42J tumor-bearing mice; 0.040 nmol/mouse,1.9 ± 0.3
same,Tu-to-liver,AR42J tumor-bearing mice; 0.040 nmol/mouse,100 ± 8
same,Tu-to-lung (tumor-to-lungs),AR42J tumor-bearing mice; 0.040 nmol/mouse,17 ± 3
same,Tu-to-panc (tumor-to-pancreas),AR42J tumor-bearing mice; 0.040 nmol/mouse,9.7 ± 1.8
same,Tu-to-sto (tumor-to-stomach),AR42J tumor-bearing mice; 0.040 nmol/mouse,11 ± 2
same,Biodistribution: Blood,AR42J tumor-bearing mice; 0.20 nmol/mouse,<0.10 % IA/g
same,Biodistribution: Femur,AR42J tumor-bearing mice; 0.20 nmol/mouse,0.10 ± 0.01 % IA/g
same,Biodistribution: Heart,AR42J tumor-bearing mice; 0.20 nmol/mouse,<0.10 % IA/g
same,Biodistribution: Kidneys,AR42J tumor-bearing mice; 0.20 nmol/mouse,10 ± 3 % IA/g
same,Biodistribution: Muscle,AR42J tumor-bearing mice; 0.20 nmol/mouse,<0.10 % IA/g
same,Tu-to-adr (tumor-to-adrenals),AR42J tumor-bearing mice; 0.20 nmol/mouse,47 ± 29
same,Tu-to-blood,AR42J tumor-bearing mice; 0.20 nmol/mouse,235 ± 60
same,Tu-to-kidney,AR42J tumor-bearing mice; 0.20 nmol/mouse,1.9 ± 0.4
same,Tu-to-liver,AR42J tumor-bearing mice; 0.20 nmol/mouse,118 ± 24
same,Tu-to-lung (tumor-to-lungs),AR42J tumor-bearing mice; 0.20 nmol/mouse,27 ± 6
same,Tu-to-panc (tumor-to-pancreas),AR42J tumor-bearing mice; 0.20 nmol/mouse,10 ± 2
same,Tu-to-sto (tumor-to-stomach),AR42J tumor-bearing mice; 0.20 nmol/mouse,15 ± 4
same,Biodistribution: AR42J Tumor,AR42J tumor-bearing mice; 1.0 nmol/mouse,8.9 ± 1.5 % IA/g
same,Biodistribution: Adrenals,AR42J tumor-bearing mice; 1.0 nmol/mouse,0.28 ± 0.08 % IA/g
same,Biodistribution: Blood,AR42J tumor-bearing mice; 1.0 nmol/mouse,<0.10 % IA/g
same,Biodistribution: Femur,AR42J tumor-bearing mice; 1.0 nmol/mouse,<0.10 % IA/g
same,Biodistribution: Heart,AR42J tumor-bearing mice; 1.0 nmol/mouse,<0.10 % IA/g
same,Biodistribution: Intestines,AR42J tumor-bearing mice; 1.0 nmol/mouse,0.20 ± 0.05 % IA/g
same,Biodistribution: Kidneys,AR42J tumor-bearing mice; 1.0 nmol/mouse,11 ± 1 % IA/g
same,Biodistribution: Liver,AR42J tumor-bearing mice; 1.0 nmol/mouse,0.26 ± 0.07 % IA/g
same,Biodistribution: Lung,AR42J tumor-bearing mice; 1.0 nmol/mouse,0.37 ± 0.06 % IA/g
same,Biodistribution: Muscle,AR42J tumor-bearing mice; 1.0 nmol/mouse,<0.10 % IA/g
same,Biodistribution: Pancreas,AR42J tumor-bearing mice; 1.0 nmol/mouse,0.80 ± 0.13 % IA/g
same,Biodistribution: Spleen,AR42J tumor-bearing mice; 1.0 nmol/mouse,0.15 ± 0.03 % IA/g
same,Biodistribution: Stomach,AR42J tumor-bearing mice; 1.0 nmol/mouse,0.65 ± 0.11 % IA/g
same,Tu-to-adr (tumor-to-adrenals),AR42J tumor-bearing mice; 1.0 nmol/mouse,29 ± 3
same,Tu-to-lung (tumor-to-lungs),AR42J tumor-bearing mice; 1.0 nmol/mouse,25 ± 3
same,Tu-to-panc (tumor-to-pancreas),AR42J tumor-bearing mice; 1.0 nmol/mouse,13 ± 1
same,Tu-to-sto (tumor-to-stomach),AR42J tumor-bearing mice; 1.0 nmol/mouse,15 ± 5
same,kidney uptake,AR42J tumor-bearing mice; irrespective of the applied setting (0.04-1.0 nmol),~ 10%
same,LogD,[1],-3.1 ± 0.2
same,Median survival,"AR42J tumors; 2 x 10 MBq, 0.2 nmol",19.5 days
same,tumor growth delay,"AR42J tumors; 2 x 10 MBq, 0.2 nmol, Day 0 and 7",6.0 ± 4.4 days
same,Time frame of euthanasia,"AR42J tumors; 2 x 10 MBq, 0.2 nmol, end of study = 49 days",12 to 22 days
same,tumor doubling time,AR42J tumors; regrowth phase,3.4 ± 0.8 days
same,ALB (albumin),[2],24 ± 5 g/L
same,ALP (alkaline phosphatase),[2],77 ± 8 U/L
same,BUN (blood urea nitrogen),[2],6.3 ± 0.9 mmol/L
same,CRE (plasma creatinine),[2],<18 (n=5) µmol/L
same,TBIL (total bilirubin),[2],< 3 µmol/L and 4 ± 1 µmol/L
